In patent US20180057581A1 (MorphoSys, published 2018):

Key:
[1] = target: T1, Recombinant cynomolgus monkey sgM-CSF (cynomolgus (Macaca fascicularis), UniProt P09603 33-255 (human entry), limits assumed); assay: Receptor binding assay, inhibition of cynomolgus M-CSF binding to M-CSF receptor (competitor CSF1-R-Fc); Table 12 summary
T1 construct: used also where only 'cynomolgus M-CSF' is printed (ELISA result, SET); also called cynomolgus sgM-CSF; cyno sgM-CSF
T1 chain: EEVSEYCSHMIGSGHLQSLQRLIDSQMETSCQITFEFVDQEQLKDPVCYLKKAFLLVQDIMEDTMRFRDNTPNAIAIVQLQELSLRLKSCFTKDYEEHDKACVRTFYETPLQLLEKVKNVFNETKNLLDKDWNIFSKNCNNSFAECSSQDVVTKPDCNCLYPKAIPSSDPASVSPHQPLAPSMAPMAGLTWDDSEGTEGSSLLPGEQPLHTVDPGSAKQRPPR
Procedure: Complexes were then transferred to 384 well MSD plates coated with 2 μg/ml of the corresponding receptor. Plates were then washed and incubated with the streptavidin/ECL conjugate for 2 h with shaking at room temperature. 35 μl MSD read buffer T with surfactant was then added per well and subsequently measured using MSD Sector Imager 6000.

Antitrypsin (human) = Antitrypsin (human) (human, UniProt P01009 25-418); assay: MSD specificity profiling, coated protein
Procedure: (§1) For this specificity profiling test the different proteins and controls were coated on two 384-well MSD plates with a concentration of 1 μg/ml at 4° C. over night. Plates were blocked with BSA and washed three times with PBS with 0.05% (v/v) Tween 20. Antibody samples were diluted to 100 nM and 10 nM in assay buffer (PBS with 0.5% (w/v) BSA, 0.05% (v/v) Tween 20). […] Samples and controls were incubated for three hours at room temperature. The plates were washed three times and 30 μl detection antibody (ECL-labeled anti-human Fab) were added per well and incubated for 1 h. After washing, MSD Read Buffer T with surfactant was added and electrochemiluminescence signals were detected using a Sector Imager 6000 (Meso Scale Discovery, Gaithersburg, Md., USA).

Lectin (Lens culinaris) = target: T2, Lectin (Lens culinaris) (Lens culinaris, UniProt P02870 31-210; P02870 218-269, limits assumed); assay: MSD specificity profiling, coated protein
T2 sequence (looked up) 1: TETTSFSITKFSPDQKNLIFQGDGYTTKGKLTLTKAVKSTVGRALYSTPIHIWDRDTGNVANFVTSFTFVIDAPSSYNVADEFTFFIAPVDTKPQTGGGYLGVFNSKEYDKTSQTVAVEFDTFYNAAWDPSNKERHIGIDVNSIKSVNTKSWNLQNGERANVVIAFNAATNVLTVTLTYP
T2 sequence (looked up) 2: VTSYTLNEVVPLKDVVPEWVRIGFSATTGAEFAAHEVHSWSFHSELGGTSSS
Procedure: as §1

Fibrinogen (bovine) = target: T3, Fibrinogen (bovine) (bovine, UniProt P02672 20-615; P02676 1-468; P12799 25-444); assay: MSD specificity profiling, coated protein
T3 sequence (looked up) 1: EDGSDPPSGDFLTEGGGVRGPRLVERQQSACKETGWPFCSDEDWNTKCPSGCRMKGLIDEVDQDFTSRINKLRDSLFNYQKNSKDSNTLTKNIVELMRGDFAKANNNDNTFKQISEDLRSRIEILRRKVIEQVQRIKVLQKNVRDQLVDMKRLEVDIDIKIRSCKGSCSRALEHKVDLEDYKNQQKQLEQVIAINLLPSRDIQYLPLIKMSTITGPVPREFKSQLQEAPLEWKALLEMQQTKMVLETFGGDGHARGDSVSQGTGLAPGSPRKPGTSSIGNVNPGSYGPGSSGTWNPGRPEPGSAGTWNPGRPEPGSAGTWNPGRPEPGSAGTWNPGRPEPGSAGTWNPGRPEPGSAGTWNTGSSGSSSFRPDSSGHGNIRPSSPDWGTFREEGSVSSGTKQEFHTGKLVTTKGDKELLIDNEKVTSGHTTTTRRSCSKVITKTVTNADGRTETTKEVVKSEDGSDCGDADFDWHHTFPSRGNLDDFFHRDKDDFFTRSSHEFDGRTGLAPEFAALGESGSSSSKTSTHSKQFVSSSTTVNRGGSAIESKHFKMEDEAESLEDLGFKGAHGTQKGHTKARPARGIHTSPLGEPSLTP
T3 sequence (looked up) 2: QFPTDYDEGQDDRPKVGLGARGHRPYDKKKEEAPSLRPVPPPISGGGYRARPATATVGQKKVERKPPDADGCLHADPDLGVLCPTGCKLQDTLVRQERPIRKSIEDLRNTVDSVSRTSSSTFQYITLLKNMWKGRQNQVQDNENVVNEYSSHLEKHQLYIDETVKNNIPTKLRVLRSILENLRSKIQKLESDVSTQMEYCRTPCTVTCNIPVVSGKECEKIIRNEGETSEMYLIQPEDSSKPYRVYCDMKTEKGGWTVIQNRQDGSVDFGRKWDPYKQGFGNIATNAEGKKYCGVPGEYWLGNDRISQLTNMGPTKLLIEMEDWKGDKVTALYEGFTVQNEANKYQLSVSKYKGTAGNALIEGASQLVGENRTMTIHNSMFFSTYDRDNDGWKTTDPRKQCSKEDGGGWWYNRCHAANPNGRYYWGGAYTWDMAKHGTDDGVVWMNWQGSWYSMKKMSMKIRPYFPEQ
T3 sequence (looked up) 3: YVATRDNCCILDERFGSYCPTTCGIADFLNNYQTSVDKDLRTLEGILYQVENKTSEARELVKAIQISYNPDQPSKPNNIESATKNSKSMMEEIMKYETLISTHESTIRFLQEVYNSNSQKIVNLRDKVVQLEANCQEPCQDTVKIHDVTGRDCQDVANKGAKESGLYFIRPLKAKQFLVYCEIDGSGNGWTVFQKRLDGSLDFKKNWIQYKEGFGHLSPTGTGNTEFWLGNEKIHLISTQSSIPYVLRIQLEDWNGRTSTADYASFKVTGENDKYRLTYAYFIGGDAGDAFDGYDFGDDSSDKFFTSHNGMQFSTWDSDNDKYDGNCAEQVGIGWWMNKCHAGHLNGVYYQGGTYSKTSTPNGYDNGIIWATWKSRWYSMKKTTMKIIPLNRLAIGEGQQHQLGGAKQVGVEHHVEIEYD
Procedure: as §1

Transferrin (bovine) = Transferrin (bovine) (bovine, UniProt Q29443 20-704); assay: MSD specificity profiling, coated protein
Procedure: as §1

[2] = target: T1, Recombinant cynomolgus monkey sgM-CSF; assay: Table 12 summary, criterion Binding, Cynomolgus M-CSF; assay and antibody format not named there

Transferrin (bovine), sequence (Q29443 20-704 limits assumed): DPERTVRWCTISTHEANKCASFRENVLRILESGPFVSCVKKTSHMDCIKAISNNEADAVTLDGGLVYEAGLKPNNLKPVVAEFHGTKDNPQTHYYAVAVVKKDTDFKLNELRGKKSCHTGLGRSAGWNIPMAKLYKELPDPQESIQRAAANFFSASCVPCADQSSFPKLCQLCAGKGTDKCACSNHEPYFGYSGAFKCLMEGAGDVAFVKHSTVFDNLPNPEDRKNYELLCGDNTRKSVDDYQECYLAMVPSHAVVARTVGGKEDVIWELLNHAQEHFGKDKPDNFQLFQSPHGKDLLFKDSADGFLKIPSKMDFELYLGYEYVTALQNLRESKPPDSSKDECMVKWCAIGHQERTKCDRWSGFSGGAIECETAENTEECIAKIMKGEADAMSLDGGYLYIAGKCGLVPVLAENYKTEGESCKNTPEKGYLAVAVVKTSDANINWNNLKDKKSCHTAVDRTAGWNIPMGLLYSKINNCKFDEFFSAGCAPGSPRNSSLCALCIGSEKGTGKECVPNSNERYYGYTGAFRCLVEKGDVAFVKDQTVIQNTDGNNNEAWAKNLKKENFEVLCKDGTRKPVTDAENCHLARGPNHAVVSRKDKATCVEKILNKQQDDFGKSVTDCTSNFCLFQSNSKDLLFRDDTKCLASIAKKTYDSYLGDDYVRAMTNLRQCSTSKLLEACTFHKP
Antitrypsin (human), sequence (P01009 25-418 limits assumed): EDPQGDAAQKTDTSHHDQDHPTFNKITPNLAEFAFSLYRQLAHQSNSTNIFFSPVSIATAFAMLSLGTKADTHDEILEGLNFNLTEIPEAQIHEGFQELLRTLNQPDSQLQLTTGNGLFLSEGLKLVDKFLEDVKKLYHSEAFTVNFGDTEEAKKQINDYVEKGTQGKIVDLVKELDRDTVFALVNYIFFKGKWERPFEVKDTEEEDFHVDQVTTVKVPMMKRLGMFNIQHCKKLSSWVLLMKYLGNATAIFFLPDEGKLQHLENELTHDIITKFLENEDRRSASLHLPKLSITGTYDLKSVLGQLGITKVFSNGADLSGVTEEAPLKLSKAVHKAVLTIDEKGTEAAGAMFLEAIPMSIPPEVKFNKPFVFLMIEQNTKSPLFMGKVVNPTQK

B1: Camille (format not stated) (antibody, V domains shown)
VH: QVQLQQSGPGLVKPSQTLSLTCAISGESVSTSSAAWNWIRQSPSRGLEWLGRTYYRSKWKHEYAVSVKSRITINPDTSKNQFSLQLNSVTPEDTAVYYCARDRYYYSAFDYWGQGTLVTVSS
VL: QSALTQPASVSGSPGQSITISCTGTSSDVGGYNSVSWYQQHPGKAPKLLIYAVSNRPSGVSNRFSGSKSGNTASLTISGLQAEDEADYYCASYDERFTRVFGGGTKLTVLG
notes: also called Antibody Camille
- IC50 [1]: 0.006 nM
- binding result (Antitrypsin (human)): no binding (tested: 100 nM and 10 nM antibody)
- binding result (Lectin (Lens culinaris)): no binding (tested: 100 nM and 10 nM antibody)
- binding result (Fibrinogen (bovine)): no binding (tested: 100 nM and 10 nM antibody)
- binding result (Transferrin (bovine)): no binding (tested: 100 nM and 10 nM antibody)
- Kd [2]: 0.025 nM
